# In publication PMC4973297, “Crystal structure of the PAS domain of the hEAG potassium channel” (Acta Crystallographica. Section F, Structural Biology …, 2016):
# B1: N-PAS domain of the human EAG channel (residues 1-146) (domain or fragment, UniProt O95259 1-146, looked up)
# chain: MTMAGGRRGLVAPQNTFLENIVRRSNDTNFVLGNAQIVDWPIVYSNDGFCKLSGYHRAEVMQKSSTCSFMYGELTDKDTIEKVRQTFENYEMNSFEILMYKKNRTPVWFFVKIAPIRNEQDKVVLFLCTFSDITAFKQPIEDDSCK
# notes: human ether-a-go-go potassium channel (hEAG), N-terminal residues 1-146 holding the PAS domain; amplified from a human cDNA library; calculated mass 16 933.16 Da; The crystal has six molecules per asymmetric unit; Only about residues 27/28 to 135/137 are built in the model; Residues left by PreScission cleavage are not described; also called hEAG N-PAS domain; PAS domain of hEAG; not shown: GST, …
# Target: the molecule itself
# Assay: SEC; HiLoad 26/60 Superdex 200, 20 mM Tris-HCl pH 7.5, 200 mM NaCl, 5 mM DTT; last step of the purification
protein,measurement,value
B1,stoichiometry N,2
